# Measured values from the supplement of paper PMC10567573.
# B1: ANKRD44 (parent)
# chain: FHCIETLVTTGANVNETDDWGRTA
# Variants of: B1
# Assay: protein stability index of a GFP-peptide fusion (GPS, HEK-293T) (PSI 1-6); higher = more stable
# Settings: c terminus: a fixed tail appended
# 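Note: lentivirally expressed fusions sorted by FACS into six bins by GFP to DsRed ratio, PSI derived from sequencing read proportions per bin multiplied by bin number.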
row,Variant,protein stability index
1,FHCIETLVTTGANVNETDDTGRTA [W20T],3.27
2,FHCIETLVTTGANVNETDDVGRTA [W20V],2.77
3,FHCIETLVTTGANVNETDDFGRTA [W20F],2.66
4,FHCIETLVTTGANVNETDDIGRTA [W20I],2.4
5,FHCIETLVTTGANVNETDDYGRTA [W20Y],2.51
6,FHCIETLVTTGANVNETDDGGRTA [W20G],2.52
7,FHCIETLVTTGANVNETDDQGRTA [W20Q],2.66
8,FHCIETLVTTGANVNETDDLGRTA [W20L],3.26
9,FHCIETLVTTGANVNETDDCGRTA [W20C],2.43
10,FHCIETLVTTGANVNETDDNGRTA [W20N],3.23
11,FHCIETLVTTGANVNETDDSGRTA [W20S],3
12,FHCIETLVTTGANVNETDDDGRTA [W20D],3.2
13,FHCIETLVTTGANVNETDVWGRTA [D19V],2.18
14,FHCIETLVTTGANVNETDSWGRTA [D19S],1.72
15,FHCIETLVTTGANVNETDGWGRTA [D19G],1.79
16,FHCIETLVTTGANVNETDMWGRTA [D19M],2
17,FHCIETLVTTGANVNETDYWGRTA [D19Y],2.43
18,FHCIETLVTTGANVNETDFWGRTA [D19F],2.58
19,FHCIETLVTTGANVNETDLWGRTA [D19L],2.09
20,FHCIETLVTTGANVNETDKWGRTA [D19K],2.05
21,FHCIETLVTTGANVNETDIWGRTA [D19I],3.48
22,FHCIETLVTTGANVNETDEWGRTA [D19E],2.49
23,FHCIETLVTTGANVNETDWWGRTA [D19W],2.44
24,FHCIETLVTTGANVNETDPWGRTA [D19P],2.26

row,Variant,protein stability index
1,FHCIETLVTTGANVNETDRWGRTA [D19R],1.66
2,FHCIETLVTTGANVNETDCWGRTA [D19C],2.15
3,FHCIETLVTTGANVNETDAWGRTA [D19A],1.56
4,FHCIETLVTTGANVNETDNWGRTA [D19N],1.75
5,FHCIETLVTTGANVNETDQWGRTA [D19Q],2.06
6,FHCIETLVTTGANVNETDTWGRTA [D19T],1.88
7,FHCIETLVTTGANVNETDHWGRTA [D19H],1.73
8,FHCIETLVTTGANVNETDDWGATA [R22A],2.64
9,FHCIETLVTTGANVNETDDWGGTA [R22G],1.88
10,FHCIETLVTTGANVNETDDWGDTA [R22D],3.09
11,FHCIETLVTTGANVNETDDWGFTA [R22F],1.65
12,FHCIETLVTTGANVNETDDWGCTA [R22C],1.76
13,FHCIETLVTTGANVNETDDWGETA [R22E],2.91
14,FHCIETLVTTGANVNNTDDWGRTA [E16N],1.97
15,FHCIETLVTTGANVNLTDDWGRTA [E16L],1.8
16,FHCIETLVTTGANVNTTDDWGRTA [E16T],1.53
17,FHCIETLVTTGANVNRTDDWGRTA [E16R],1.76
18,FHCIETLVTTGANVNFTDDWGRTA [E16F],1.86
19,FHCIETLVTTGANVNVTDDWGRTA [E16V],1.64
20,FHCIETLVTTGANVNQTDDWGRTA [E16Q],1.45
21,FHCIETLVTTGANVNDTDDWGRTA [E16D],2.17
22,FHCIETLVTTGANVNKTDDWGRTA [E16K],2.5
23,FHCIETLVTTGANVNMTDDWGRTA [E16M],1.56
24,FHCIETLVTTGANVNGTDDWGRTA [E16G],1.79

row,Variant,protein stability index
1,FHCIETLVTTGANVNYTDDWGRTA [E16Y],2.32
2,FHCIETLVTTGANVNPTDDWGRTA [E16P],2
3,FHCIETLVTTGANVNSTDDWGRTA [E16S],1.78
4,FHCIETLVTTGANVNATDDWGRTA [E16A],1.98
5,FHCIETLVTTGANVNHTDDWGRTA [E16H],2.32
6,FHCIETLVTTGANVNWTDDWGRTA [E16W],2.43
7,FHCIETLVTTGANVNITDDWGRTA [E16I],1.52
8,FHCIETLVTTGANVNCTDDWGRTA [E16C],2.16
9,FHCIETLVTTGANVYETDDWGRTA [N15Y],1.96
10,FHCIETLVTTGANVRETDDWGRTA [N15R],2.01
11,FHCIETLVTTGANVFETDDWGRTA [N15F],1.96
12,FHCIETLVTTGANVGETDDWGRTA [N15G],1.85
13,FHCIETLVTTGANVWETDDWGRTA [N15W],2.14
14,FHCIETLVTTGANVCETDDWGRTA [N15C],1.9
15,FHCIETLVTTGANVKETDDWGRTA [N15K],2.44
16,FHCIETLVTTGANVLETDDWGRTA [N15L],2.21
17,FHCIETLVTTGANVIETDDWGRTA [N15I],1.54
18,FHCIETLVTTGANVEETDDWGRTA [N15E],2.13
19,FHCIETLVTTGANVPETDDWGRTA [N15P],2.34
20,FHCIETLVTTGANVMETDDWGRTA [N15M],1.69
21,FHCIETLVTTGANVVETDDWGRTA [N15V],2
22,FHCIETLVTTGANVDETDDWGRTA [N15D],2.29
23,FHCIETLVTTGANVQETDDWGRTA [N15Q],2.18
24,FHCIETLVTTGANVAETDDWGRTA [N15A],1.76

row,Variant,protein stability index
1,FHCIETLVTTGANVSETDDWGRTA [N15S],1.64
2,FHCIETLVTTGANVHETDDWGRTA [N15H],2.17
3,FHCIETLVTTGANVTETDDWGRTA [N15T],3.27
4,FHCIETLVTTGAVVNETDDWGRTA [N13V],2.61
5,FHCIETLVTTGAYVNETDDWGRTA [N13Y],1.68
6,FHCIETLVTTGAIVNETDDWGRTA [N13I],2.31
7,FHCIETLVTTGAHVNETDDWGRTA [N13H],2.13
8,FHCIETLVTTGAAVNETDDWGRTA [N13A],2.56
9,FHCIETLVTTGAEVNETDDWGRTA [N13E],1.69
10,FHCIETLVTTGAWVNETDDWGRTA [N13W],1.77
11,FHCIETLVTTGADVNETDDWGRTA [N13D],2.51
12,FHCIETLVTTGAKVNETDDWGRTA [N13K],2.36
13,FHCIETLVTTGARVNETDDWGRTA [N13R],2.1
14,FHCIETLVTTGAGVNETDDWGRTA [N13G],2.21
15,FHCIETLVTTGATVNETDDWGRTA [N13T],2.18
16,FHCIETLVTTGACVNETDDWGRTA [N13C],1.59
17,FHCIETLVTTGALVNETDDWGRTA [N13L],2.11
18,FHCIETLVTTGAFVNETDDWGRTA [N13F],3.16
19,FHCIETLVTTGAQVNETDDWGRTA [N13Q],2.3
20,FHCIETLVTTGAPVNETDDWGRTA [N13P],2.41
21,FHCIETLVTTGASVNETDDWGRTA [N13S],2.39
22,FHCIETLVTTGAMVNETDDWGRTA [N13M],1.5
